Test results reported in publication PMC12624790.

Biological target: His6-3C-SUMO-Sec22 TMD-thrombin-HiBiT

percent of substrate extracted from standard liposomes by Msp1 with ATP (split-luciferase extraction assay, 30 min, 30 °C): 10%
B1: Δ1-32 Msp1 (enzyme)
chain: DVESGPLSGKSRESKAKQSLQWEKLVKRSPALAEVTLDAYERTILSSIVTPDEINITFQDIGGLDPLISDLHESVIYPLMMPEVYSNSPLLQAPSGVLLYGPPGCGKTMLAKALAKESGANFISIRMSSIMDKWYGESNKIVDAMFSLANKLQPCIIFIDEIDSFLRERSSTDHEVTATLKAEFMTLWDGLLNNGRVMIIGATNRINDIDDAFLRRLPKRFLVSLPGSDQRYKILSVLLKDTKLDEDEFDLQLIADNTKGFSGSDLKELCREAALDAAKEYIKQKRQLIDSGTIDVNDTSSLKIRPLKTKDFTKKLRMDATSTLSSQPLD
